Data set [1] concerns the target FLAG-tagged tuberin (UniProt P49815).
Data set [2] has as its system MBP-AMPKa (1-312) bacterial fusion protein.
Data set [3] has as its system SAMS peptide.

Sequence of FLAG-tagged tuberin (P49815 whole entry, the tested form may be a part): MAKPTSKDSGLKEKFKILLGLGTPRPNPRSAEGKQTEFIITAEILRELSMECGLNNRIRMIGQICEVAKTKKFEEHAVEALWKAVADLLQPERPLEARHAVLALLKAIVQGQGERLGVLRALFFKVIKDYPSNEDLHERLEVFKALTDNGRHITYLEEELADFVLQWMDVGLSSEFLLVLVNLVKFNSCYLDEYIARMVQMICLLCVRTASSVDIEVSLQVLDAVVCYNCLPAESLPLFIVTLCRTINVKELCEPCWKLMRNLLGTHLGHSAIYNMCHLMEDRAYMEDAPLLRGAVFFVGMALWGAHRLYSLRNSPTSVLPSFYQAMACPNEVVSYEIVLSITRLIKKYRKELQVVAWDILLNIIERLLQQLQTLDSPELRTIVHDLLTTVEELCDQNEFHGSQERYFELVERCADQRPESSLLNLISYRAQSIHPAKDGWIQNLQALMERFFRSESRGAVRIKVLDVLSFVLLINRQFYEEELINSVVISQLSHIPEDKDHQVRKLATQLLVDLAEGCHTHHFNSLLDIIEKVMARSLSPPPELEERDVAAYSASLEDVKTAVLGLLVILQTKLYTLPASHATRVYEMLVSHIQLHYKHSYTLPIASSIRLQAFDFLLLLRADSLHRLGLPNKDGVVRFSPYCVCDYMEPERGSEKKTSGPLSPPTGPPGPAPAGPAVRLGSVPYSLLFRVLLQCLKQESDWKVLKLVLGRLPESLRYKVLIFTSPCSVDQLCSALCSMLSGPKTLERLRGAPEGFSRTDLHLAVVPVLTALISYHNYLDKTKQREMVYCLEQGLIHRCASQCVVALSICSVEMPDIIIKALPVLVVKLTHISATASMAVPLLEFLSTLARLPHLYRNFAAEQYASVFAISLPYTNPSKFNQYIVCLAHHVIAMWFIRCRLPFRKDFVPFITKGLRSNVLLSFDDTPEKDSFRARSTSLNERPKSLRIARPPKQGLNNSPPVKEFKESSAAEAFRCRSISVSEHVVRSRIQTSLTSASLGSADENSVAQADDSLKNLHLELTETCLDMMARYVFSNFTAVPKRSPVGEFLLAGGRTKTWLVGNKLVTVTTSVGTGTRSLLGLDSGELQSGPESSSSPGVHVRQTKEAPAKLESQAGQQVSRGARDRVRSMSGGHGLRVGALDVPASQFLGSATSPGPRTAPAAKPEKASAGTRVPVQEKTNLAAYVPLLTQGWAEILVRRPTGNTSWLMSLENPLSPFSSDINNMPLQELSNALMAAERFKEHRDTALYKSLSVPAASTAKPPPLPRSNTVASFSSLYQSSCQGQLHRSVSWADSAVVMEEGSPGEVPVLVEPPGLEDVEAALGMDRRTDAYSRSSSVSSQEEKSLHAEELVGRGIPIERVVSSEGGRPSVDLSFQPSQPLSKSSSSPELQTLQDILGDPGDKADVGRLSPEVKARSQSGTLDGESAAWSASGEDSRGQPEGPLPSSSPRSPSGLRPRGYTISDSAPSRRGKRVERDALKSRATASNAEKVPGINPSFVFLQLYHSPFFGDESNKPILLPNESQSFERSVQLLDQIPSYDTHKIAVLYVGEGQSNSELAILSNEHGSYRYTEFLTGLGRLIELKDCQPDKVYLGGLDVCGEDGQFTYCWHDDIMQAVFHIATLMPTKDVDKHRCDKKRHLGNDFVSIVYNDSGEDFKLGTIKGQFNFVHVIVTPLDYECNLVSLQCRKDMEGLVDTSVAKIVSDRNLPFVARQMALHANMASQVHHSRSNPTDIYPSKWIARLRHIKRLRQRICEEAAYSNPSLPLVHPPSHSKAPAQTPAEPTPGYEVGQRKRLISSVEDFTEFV

“Active recombinant AMPK (Upstate Biotechnology)”: the “in vitro phosphorylation of tuberin; mobility shift on low percentage SDS-PAGE” value in data set [1] was “when tuberin was stoichiometrically phosphorylated by AMPK, it underwent a mobility shift”. Same read-out and setting: with “Active recombinant Akt (Upstate Biotechnology)” the entry was “This mobility shift in tuberin was not observed when tuberin was phosphorylated by active recombinant Akt, even at levels of tuberin phosphorylation comparable to those induced by AMPK”. “Kinase-inactive LKB1 (K78I) coexpressed with STRAD, Flag immunoprecipitate”: the “AMPK kinase activity towards the SAMS peptide after in vitro kinase reaction with LKB1” value in data set [2] is “Kinase-inactive LKB1 alone or coexpressed with STRAD was unable to activate AMPK”. Take “MBP-AMPKa (1-312) bacterial fusion protein”: in data set [1], the “in vitro phosphorylation of FLAG-tagged tuberin by recombinant AMPK pre-activated with wild-type LKB1” value was “AMPK activated by wild-type LKB1 directly phosphorylated tuberin in vitro”. In addition, the “phosphorylation of the SAMS peptide by unphosphorylated MBP-AMPK” value in data set [3] was “bacterial MBP-AMPK is inactive towards the peptide”.

For the origin of these results see patent US20080194019.
